What all share (experiment): cell-based or functional assay
The target of test [1] is T1, human GIP receptor (human, UniProt P48546 22-466).
T1 sequence (looked up): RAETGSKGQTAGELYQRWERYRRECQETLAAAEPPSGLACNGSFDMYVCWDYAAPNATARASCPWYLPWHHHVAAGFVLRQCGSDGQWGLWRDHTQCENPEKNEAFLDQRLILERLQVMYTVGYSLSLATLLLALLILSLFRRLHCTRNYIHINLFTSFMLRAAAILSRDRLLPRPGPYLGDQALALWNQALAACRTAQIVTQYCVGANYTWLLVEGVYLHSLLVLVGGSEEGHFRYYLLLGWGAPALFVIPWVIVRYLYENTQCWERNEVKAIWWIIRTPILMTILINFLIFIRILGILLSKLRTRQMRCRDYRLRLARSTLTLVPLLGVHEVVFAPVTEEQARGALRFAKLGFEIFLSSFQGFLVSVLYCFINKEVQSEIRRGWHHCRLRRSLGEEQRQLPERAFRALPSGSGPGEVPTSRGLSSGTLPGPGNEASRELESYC

Test [2] deals with human GLP-1 receptor (human, UniProt P43220 24-463).
The target of test [3] is hGLP-1R (Homo sapiens, UniProt P43220).
Test [4] concerns the target T2, human GIP receptor (human) (UniProt P48546).
T2 sequence (looked up): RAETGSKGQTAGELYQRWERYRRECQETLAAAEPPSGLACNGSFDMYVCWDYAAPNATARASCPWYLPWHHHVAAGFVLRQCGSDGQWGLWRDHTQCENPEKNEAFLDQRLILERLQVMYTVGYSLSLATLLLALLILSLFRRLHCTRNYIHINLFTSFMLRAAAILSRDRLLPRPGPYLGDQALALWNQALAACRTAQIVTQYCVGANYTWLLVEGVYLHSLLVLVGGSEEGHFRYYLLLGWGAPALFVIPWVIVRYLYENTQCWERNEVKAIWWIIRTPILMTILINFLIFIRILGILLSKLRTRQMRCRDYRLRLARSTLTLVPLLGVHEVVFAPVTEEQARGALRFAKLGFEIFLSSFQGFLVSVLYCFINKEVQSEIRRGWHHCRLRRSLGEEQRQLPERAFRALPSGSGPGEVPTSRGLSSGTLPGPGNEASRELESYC

Test [5] addresses human glucagon receptor (human) (UniProt P47871).
For test [6], the target named is human glucagon-like peptide-1 (GLP-1) receptor (human, UniProt P43220 24-463).
Test [7] concerns the target T3, human glucose-dependent insulinotropic polypeptide (GIP) receptor (human, UniProt P48546 22-466).
T3 sequence (looked up): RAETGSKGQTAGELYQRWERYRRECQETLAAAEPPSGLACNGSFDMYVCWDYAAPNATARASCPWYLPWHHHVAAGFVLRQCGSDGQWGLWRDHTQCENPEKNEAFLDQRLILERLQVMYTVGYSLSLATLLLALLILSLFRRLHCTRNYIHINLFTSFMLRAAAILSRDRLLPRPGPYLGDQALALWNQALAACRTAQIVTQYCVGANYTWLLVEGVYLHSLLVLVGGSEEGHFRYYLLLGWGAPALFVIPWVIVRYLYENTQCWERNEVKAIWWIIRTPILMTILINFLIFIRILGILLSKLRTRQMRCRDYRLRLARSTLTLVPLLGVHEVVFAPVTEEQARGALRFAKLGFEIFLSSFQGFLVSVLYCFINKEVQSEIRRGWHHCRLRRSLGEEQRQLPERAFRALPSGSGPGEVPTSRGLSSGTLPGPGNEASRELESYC

*1 amine or outer side, *2 acyl side, *3 side chain or, on linkers, in order; H or OH if unused. Where no end group is shown, it is not given here. Side-chain parts run from the residue outwards. [ ]: non-standard residue; d: D form. The star is where a group is joined. αMePhe(2-F) = C[C@](N)(Cc1ccccc1F)C(=O)O; γGlu = O=C(O)[C@H](CCC(=O)[*:2])N[*:1]; C14 diacid = O=C(O)CCCCCCCCCCCCC(=O)*; αMeY = C[C@](N)(Cc1ccc(O)cc1)C(=O)O; αMeL = CC(C)C[C@](C)(N)C(=O)O; Orn = NCCC[C@H](N)C(=O)O; Dap = NC[C@H](N)C(=O)O; AEEA = NCCOCCOCC(=O)O; Aib = CC(C)(N)C(=O)O

B1: Example 413 (peptide)
peptide: YXEGTXTSDXXIXLDXKAQXKFIXXLIXGGPSSGAPPPS
modifications: Y-Aib-EGT-αMeF(2F)-TSD-4Pal-Aib-I-αMeL-LD-Orn-K((2-[2-(2-Amino-ethoxy)-ethoxy]-acetyl)2-(γ-Glu)-CO-(CH2)10-CH3)AQ-Aib-K((2-[2-(2-Amino-ethoxy)-ethoxy]-acetyl)2-(γ-Glu)-CO-(CH2)10-CH3)FI-(D-Glu)-αMeY-LI-Orn-GGPSSGAPPPS-NH2
On to B1, for which the “cAMP EC50 (1.0% HSA)” value in test [1] came to 0.422 nM; in test [2], 5.47 nM. Besides, the results for the cAMP EC50 in test [3], in test [4] and in test [5] were 0.234 nM, 0.0146 nM and more than 9950 nM, respectively. Besides, the cAMP Emax is 96.9% in test [3] and 101% in test [4].

B2: Example 408 (peptide)
peptide: YXEGTXTSDXXIXLDXKAQXKFIXXLIXGGPSSGAPPPS
modifications: Y-Aib-EGT-αMeF(2F)-TSD-4Pal-Aib-I-αMeL-LD-Orn-K((2-[2-(2-Amino-ethoxy)-ethoxy]-acetyl)2-(γ-Glu)-(10-(4-carboxyphenoxy)decanoyl))AQ-Aib-K((2-[2-(2-Amino-ethoxy)-ethoxy]-acetyl)2-(γ-Glu)-(10-(4-carboxyphenoxy)decanoyl))FI-(D-Glu)-αMeY-LI-Orn-GGPSSGAPPPS-NH2
As for B2, the entries for the “cAMP EC50 (1.0% HSA)” value in test [1] and in test [2] were 0.299 nM and 5.92 nM, respectively. In addition, the cAMP EC50 in test [3] was 0.227 nM; in test [4], 0.00888 nM; in test [5], more than 9950 nM. Also, the cAMP Emax in test [3] came to 102%; in test [4], 99.7%.

B3: Example 358 (peptide)
peptide: YXEGTXTSDXXIXLDXKAQXEFIXXLIKGGPSSGAPPPS
modifications: Y-Aib-EGT-αMeF(2F)-TSD-4Pal-Aib-I-αMeL-LD-Orn-K((2-[2-(2-Amino-ethoxy)-ethoxy]-acetyl)2-(γ-Glu)-CO-(CH2)12-CO2H)AQ-Aib-EFI-(D-Glu)-αMeY-LIK((2-[2-(2-Amino-ethoxy)-ethoxy]-acetyl)2-(γ-Glu)-CO-(CH2)12-CO2H)GGPSSGAPPPS-NH2
Regarding B3, the entries for the “cAMP EC50 (1.0% HSA)” value in test [1] and in test [2] were 2.06 nM and 65.3 nM, respectively. Further, the “cAMP Emax (1.0% HSA)” value in test [1] is 86.2%. In addition, the cAMP EC50 is 0.773 nM in test [3], 0.0137 nM in test [4] and more than 10100 nM in test [5]. The cAMP Emax was determined as 107% in test [3] and 99.6% in test [4].

B4: Example 423 (peptide)
peptide: YXEGTXTSDXXIXLDXKAQXEFIXXLIKGGPSSGAPPPS
modifications: Y-Aib-EGT-αMeF(2F)-TSD-4Pal-Aib-I-αMeL-LD-Orn-K((2-[2-(2-Amino-ethoxy)-ethoxy]-acetyl)3-(γ-Glu)-CO-(CH2)10-CH3)AQ-Aib-EFI-(D-Glu)-αMeY-LIK((2-[2-(2-Amino-ethoxy)-ethoxy]-acetyl)3-(γ-Glu)-CO-(CH2)10-CH3)GGPSSGAPPPS-NH2
On to B4, for which the “cAMP EC50 (1.0% HSA)” value in test [1] was 0.294 nM; in test [2], 4.74 nM. For the same molecule, the “cAMP Emax (1.0% HSA)” value in test [1] stood at 89.7%. The cAMP EC50 is 0.0721 nM in test [3], 0.00658 nM in test [4] and more than 9950 nM in test [5]. The cAMP Emax in test [3] worked out at 105%; in test [4], 104%.

B5: Example 361 (peptide)
peptide: YXEGTXTSDXXIXLDXKAQXEFIXXLIKGGPSSGAPPPS
modifications: Y-Aib-EGT-αMeF(2F)-TSD-4Pal-Aib-I-αMeL-LD-Orn-K((2-[2-(2-Amino-ethoxy)-ethoxy]-acetyl)-(γ-Glu)-(10-(4-carboxyphenoxy)decanoyl))AQ-Aib-EFIe-αMeY-LIK((2-[2-(2-Amino-ethoxy)-ethoxy]-acetyl)-(γ-Glu)-(10-(4-carboxyphenoxy)decanoyl))GGPSSGAPPPS-NH2
Regarding B5, the figures for the “cAMP EC50 (1.0% HSA)” value in test [1] and in test [2] were 1.44 nM and 43 nM, respectively. Further, the “cAMP Emax (1.0% HSA)” value in test [1] was determined as 88.8%. Moreover, the figures for the cAMP EC50 in test [3], in test [4] and in test [5] were 0.58 nM, 0.0121 nM and more than 9950 nM, respectively. Further, the cAMP Emax came out at 98.2% in test [3] and 107% in test [4].

B6: Example 395 (peptide)
peptide: YXEGTXTSDXXIXLDXKAQXEFIXXLIKGGPSSGAPPPS
modifications: Y-Aib-EGT-αMeF(2F)-TSD-4Pal-Aib-I-αMeL-LD-Orn-K((2-[2-(2-Amino-ethoxy)-ethoxy]-acetyl)2-(10-(4-carboxyphenoxy)decanoyl))AQ-Aib-EFI-(D-Glu)-αMeY-LIK((2-[2-(2-Amino-ethoxy)-ethoxy]-acetyl)2-(10-(4-carboxyphenoxy)decanoyl))GGPSSGAPPPS-NH2
With B6, the “cAMP EC50 (1.0% HSA)” value in test [1] was found to be 0.327 nM; in test [2] it was 6.26 nM. The “cAMP Emax (1.0% HSA)” value in test [1] is 57.8%. Moreover, the cAMP EC50 in test [3] was 0.377 nM; in test [4] it was 0.0127 nM; in test [5] it was more than 9950 nM. Moreover, the cAMP Emax in test [3] was determined as 90.8%; in test [4], 93.1%.

B7: Example 212 (peptide)
peptide: YXEGTXTSDVXIXLDXKAQXEFIXXLIEGGKSSGAPPPS
modifications: Aib2, αMeF(2F)6, αMeS11, αMeL13, Orn16, K17(Z), Aib20, D-Glu24, αMeY25, K31(Z), C-terminal NH2; Z = AEEA2-(γ-Glu)-CO-(CH2)12-CO2H
As for B7, in test [6], the “cAMP EC50” value came to 0.265 nM. Moreover, in test [7], the “cAMP EC50” value came out at 0.0385 nM and the “cAMP Emax” value was found to be 100%.

B8: Example 433 (peptide)
peptide: YXEGTXTSDXXIXLDXKAQXKFIXXLIXGGPSSGAPPPS
modifications: Y-Aib-EGT-αMeF(2F)-TSD-4Pal-Aib-I-αMeL-LD-Orn-K((2-[2-(2-Amino-ethoxy)-ethoxy]-acetyl)3-(γ-Glu)-CO-(CH2)10-CH3)AQ-Aib-K((2-[2-(2-Amino-ethoxy)-ethoxy]-acetyl)3-(γ-Glu)-CO-(CH2)10-CH3)FI-(D-Glu)-αMeY-LI-Orn-GGPSSGAPPPS-NH2
In the case of B8, the results for the “cAMP EC50 (1.0% HSA)” value in test [1] and in test [2] were 0.136 nM and 2.63 nM, respectively. For the same molecule, the cAMP EC50 in test [3] was 0.128 nM; in test [4], 0.00972 nM; in test [5], more than 9950 nM. Further, the cAMP Emax in test [3] is 102%; in test [4] it was 94%.

B9: Example 201 (peptide)
peptide: Y[Aib]EGT[αMePhe(2-F)]TSDV[Dap]I[αMeL]LD[Orn]K([AEEA-AEEA-γGlu-C14 diacid])AQ[Aib]EFI[dE][αMeY]LIEGGK([AEEA-AEEA-γGlu-C14 diacid])SSGAPPPS-NH2
modifications: N-terminus assumed
SMILES: CC[C@H](C)[C@H](NC(=O)[C@H](CC(C)C)NC(=O)[C@](C)(Cc1ccc(O)cc1)NC(=O)[C@@H](CCC(=O)O)NC(=O)[C@@H](NC(=O)[C@H](Cc1ccccc1)NC(=O)[C@H](CCC(=O)O)NC(=O)C(C)(C)NC(=O)[C@H](CCC(N)=O)NC(=O)[C@H](C)NC(=O)[C@H](CCCCNC(=O)COCCOCCNC(=O)COCCOCCNC(=O)CC[C@H](NC(=O)CCCCCCCCCCCCC(=O)O)C(=O)O)NC(=O)[C@H](CCCN)NC(=O)[C@H](CC(=O)O)NC(=O)[C@H](CC(C)C)NC(=O)[C@](C)(CC(C)C)NC(=O)[C@@H](NC(=O)[C@H](CN)NC(=O)[C@@H](NC(=O)[C@H](CC(=O)O)NC(=O)[C@H](CO)NC(=O)[C@@H](NC(=O)[C@](C)(Cc1ccccc1F)NC(=O)[C@@H](NC(=O)CNC(=O)[C@H](CCC(=O)O)NC(=O)C(C)(C)NC(=O)[C@@H](N)Cc1ccc(O)cc1)[C@@H](C)O)[C@@H](C)O)C(C)C)[C@@H](C)CC)[C@@H](C)CC)C(=O)N[C@@H](CCC(=O)O)C(=O)NCC(=O)NCC(=O)N[C@@H](CCCCNC(=O)COCCOCCNC(=O)COCCOCCNC(=O)CC[C@H](NC(=O)CCCCCCCCCCCCC(=O)O)C(=O)O)C(=O)N[C@@H](CO)C(=O)N[C@@H](CO)C(=O)NCC(=O)N[C@@H](C)C(=O)N1CCC[C@H]1C(=O)N1CCC[C@H]1C(=O)N1CCC[C@H]1C(=O)N[C@@H](CO)C(N)=O
Consider B9, for which the “cAMP EC50” value in test [6] amounted to 0.487 nM. Moreover, in test [7], the “cAMP EC50” value was 0.188 nM and the “cAMP Emax” value came to 92.2%.

(Values after patent US20230265151A1, “GIP/GLP1 CO-AGONIST COMPOUNDS” (priority 2020, published 2023).)
